How the values were obtained:
Assay in all cases: cell-based or functional assay
[1] = biological target: human prokineticin receptor 2 (PKR2) (human)
[2] = biological target: T1, human prokineticin receptor 1 (PKR1) (human)
T1 chain: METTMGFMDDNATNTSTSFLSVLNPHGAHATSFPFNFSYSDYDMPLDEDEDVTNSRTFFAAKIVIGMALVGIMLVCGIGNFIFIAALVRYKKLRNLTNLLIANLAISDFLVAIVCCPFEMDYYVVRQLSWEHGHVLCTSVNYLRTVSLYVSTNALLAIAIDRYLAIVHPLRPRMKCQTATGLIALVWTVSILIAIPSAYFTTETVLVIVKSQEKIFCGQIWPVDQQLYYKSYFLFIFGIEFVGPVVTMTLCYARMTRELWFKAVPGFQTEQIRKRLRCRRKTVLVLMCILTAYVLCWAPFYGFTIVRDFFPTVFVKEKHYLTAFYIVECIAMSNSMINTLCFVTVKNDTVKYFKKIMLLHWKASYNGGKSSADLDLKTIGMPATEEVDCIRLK

[3] = biological target: human prokineticin receptor 2 (PKR2) (human); remark: listed apart in the source
[4] = biological target: T1, human prokineticin receptor 1 (PKR1)

Sequence of human prokineticin receptor 2 (PKR2) (human) (chain, as listed by the source): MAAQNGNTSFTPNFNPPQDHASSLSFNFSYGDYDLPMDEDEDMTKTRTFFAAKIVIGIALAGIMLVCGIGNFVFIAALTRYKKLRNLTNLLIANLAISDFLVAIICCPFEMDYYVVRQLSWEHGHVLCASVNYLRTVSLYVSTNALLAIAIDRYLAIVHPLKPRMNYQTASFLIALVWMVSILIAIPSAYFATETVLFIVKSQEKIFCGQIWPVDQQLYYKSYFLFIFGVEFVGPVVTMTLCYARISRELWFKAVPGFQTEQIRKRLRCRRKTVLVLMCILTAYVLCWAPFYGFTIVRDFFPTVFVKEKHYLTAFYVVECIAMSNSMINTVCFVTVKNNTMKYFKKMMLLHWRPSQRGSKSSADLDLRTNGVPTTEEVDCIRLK

Binder | dissociation constant (Kb), Schild analysis of calcium mobilization [1] [nM] | dissociation constant (Kb), Schild analysis of calcium mobilization [2] [nM] | Antagonistic Activity of PK mutants (Calcium Mobilization Assay), nM; ligand PK1 [3] [nM] | Antagonistic Activity of PK mutants (Calcium Mobilization Assay), nM; ligand PK2 [3] [nM] | Antagonistic Activity of PK mutants (Calcium Mobilization Assay), nM; ligand PK1 [4] [nM] | Antagonistic Activity of PK mutants (Calcium Mobilization Assay), nM; ligand PK2 [4] [nM]
Met PK1 (ligand) MAVITGACERDVQCGAGTCCAISLWLRGLRMCTPLGREGEECHPGSHKVPFFRKRKHHTCPCLPNLLCSRFPDGRYRCSMDLKNINF | 48.9 | 261 | 15 | 30 | 9 | 90
MV PK1 (ligand) MVITGACERDVQCGAGTCCAISLWLRGLRMCTPLGREGEECHPGSHKVPFFRKRKHHTCPCLPNLLCSRFPDGRYRCSMDLKNINF | 37.8 | 116 | 16 | 29 | 6 | 110

Reference: patent US20040235732A1, “Method for modulating angiogenesis using prokineticin receptor antagonists” (published 2004)
